Assay results: patent US20170355774A1 (Regeneron, published 2017)

T1: human GITR (amino acids M1-V241, NCBI Accession #NP_004186.1) expressed on cells (human, UniProt Q9Y5U5 26-241)
T1 sequence: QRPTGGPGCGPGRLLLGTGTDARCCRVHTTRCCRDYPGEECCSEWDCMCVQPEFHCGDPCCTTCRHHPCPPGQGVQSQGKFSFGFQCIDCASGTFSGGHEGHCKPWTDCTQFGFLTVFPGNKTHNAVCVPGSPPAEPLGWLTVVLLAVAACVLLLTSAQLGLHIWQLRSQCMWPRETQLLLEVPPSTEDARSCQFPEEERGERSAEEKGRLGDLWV

T2: hGITR.mmh (human)
T2 construct: soluble monomeric construct; also called human (h) GITR.mmh; monomeric human GITR
T2 chain: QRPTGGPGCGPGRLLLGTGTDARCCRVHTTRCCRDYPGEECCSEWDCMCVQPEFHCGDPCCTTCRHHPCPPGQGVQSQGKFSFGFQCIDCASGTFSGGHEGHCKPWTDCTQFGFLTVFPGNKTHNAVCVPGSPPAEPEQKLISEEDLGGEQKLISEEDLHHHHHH

T3: hGITR.mFc (human)
T3 construct: soluble dimeric construct with mouse Fc; also called dimeric human GITR
T3 chain: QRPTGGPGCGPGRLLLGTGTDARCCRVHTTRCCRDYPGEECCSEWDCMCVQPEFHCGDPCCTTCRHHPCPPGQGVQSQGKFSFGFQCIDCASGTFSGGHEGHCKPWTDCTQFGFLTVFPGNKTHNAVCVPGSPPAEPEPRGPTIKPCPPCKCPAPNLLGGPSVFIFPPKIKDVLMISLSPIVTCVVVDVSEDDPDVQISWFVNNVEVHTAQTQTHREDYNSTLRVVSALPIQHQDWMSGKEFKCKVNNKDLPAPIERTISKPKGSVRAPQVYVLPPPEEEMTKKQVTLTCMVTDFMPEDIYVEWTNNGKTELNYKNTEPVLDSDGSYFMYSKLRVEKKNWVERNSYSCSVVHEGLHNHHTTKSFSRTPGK

T4: mfGITR.mmh (Macaca fasicularis)
T4 construct: soluble monomeric construct; also called Macaca fasicularis (mf) GITR.mmh; cynomolgus GITR protein
T4 chain: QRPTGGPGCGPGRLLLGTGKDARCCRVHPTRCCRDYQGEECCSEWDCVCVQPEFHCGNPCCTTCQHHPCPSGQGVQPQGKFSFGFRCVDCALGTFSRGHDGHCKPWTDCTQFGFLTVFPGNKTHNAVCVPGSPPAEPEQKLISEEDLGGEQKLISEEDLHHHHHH


Experiments:
[1] = molecular target: T1, human GITR (amino acids M1-V241, NCBI …); experiment: cell-based or functional assay
[2] = molecular target: T1, human GITR (amino acids M1-V241, NCBI …); experiment: cell-based or functional assay; remark: listed apart in the source
[3] = molecular target: T1, human GITR (amino acids M1-V241, NCBI …); experiment: cell-based or functional assay; remark: listed apart in the source
[4] = molecular target: T1, human GITR (amino acids M1-V241, NCBI …); experiment: cell-based or functional assay; remark: listed apart in the source
[5] = molecular target: T1, human GITR (amino acids M1-V241, NCBI …); experiment: ECL cell binding, hGITR/HEK293-D9
How it was run: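 Cells blocked with 2% BSA, then antibody dilutions from 1.7 pM to 100 nM added 1 h at RT. Bound antibody detected with SULFO-TAG anti-human kappa antibody, electrochemiluminescence read, RLU fitted by four-parameter logistic; signal at 100 nM on hGITR cells versus parental cells also recorded.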

hGITR.mmh = molecular target: T2, hGITR.mmh; experiment: SPR 37C, mAb capture
hGITR.mFc = molecular target: T3, hGITR.mFc; experiment: SPR 37C, mAb capture
mfGITR.mmh = molecular target: T4, mfGITR.mmh; experiment: SPR 37C, mAb capture

| fold activation, T-cell proliferation, 33 nM, FcgR anchored, donor 1 [1] [fold] | fold activation, T-cell proliferation, 33 nM, FcgR anchored, donor 2 [1] [fold] | fold activation, T-cell proliferation, 33 nM, FcgR anchored, donor 3 [1] [fold] | fold activation, T-cell proliferation, 33 nM, FcgR anchored, donor 4 [1] [fold] | fold activation, T-cell proliferation, 33 nM, FcgR anchored, donor 5 [1] [fold] | fold activation, T-cell proliferation, 33 nM, FcgR anchored, mean [1] [fold] | fold activation, T-cell proliferation, plate-bound Ab 10.6 nM, donor 1 [2] [fold] | fold activation, T-cell proliferation, plate-bound Ab 10.6 nM, donor 2 [2] [fold] | fold activation, T-cell proliferation, plate-bound Ab 10.6 nM, donor 3 [2] [fold] | fold activation, T-cell proliferation, plate-bound Ab 10.6 nM, donor 4 [2] [fold] | fold activation, T-cell proliferation, plate-bound Ab 10.6 nM, donor 5 [2] [fold] | fold activation, T-cell proliferation, plate-bound Ab 10.6 nM, donor 6 [2] [fold] | fold activation, T-cell proliferation, plate-bound Ab 10.6 nM, donor 7 [2] [fold] | fold activation, T-cell proliferation, plate-bound Ab 10.6 nM, donor 8 [2] [fold] | fold activation, T-cell proliferation, plate-bound Ab 10.6 nM, mean [2] [fold] | % Activation, NF-kB-Luc, non-anchored [3] [%] | % Blocking, NF-kB-Luc, non-anchored [3] [%] | EC50, hGITR activation, NF-kB-Luc, non-anchored [3] [nM] | IC50, blocking of hGITRL stimulation, NF-kB-Luc, non-anchored [3] [nM] | fold activation, T-cell proliferation, 22 nM, non-anchored, donor 1 [4] [fold] | Binder | further results |
| --- | --- | --- | --- | --- | --- | --- | --- | --- | --- | --- | --- | --- | --- | --- | --- | --- | --- | --- | --- | --- | --- |
| 1.8 | 1 | 1.4 | 1.5 | 2 | 1.5 | 0 | 3 | 3 | 4 | 3 | 6 | 4 | 1 | 3 | 20 | 80 | 1.2 | 0.9 | 0.7 | H4H14470P (antibody, human IgG4, V domains shown, human IgG4 (H4H)) VH: QVQLVESGGGVVQPGRSLRLSCAASGFTVRNYGMHWVRQAPGKGLEWVAVIWYDGSNKYYADSVKGRFTISRDNSKNTLFLQMNSLRAEDTAVYYCARGGELVRGDYYYGMDVWGQGTTVTVSS VL: DIQMTQSPSSLSASVGDRVTITCRASQGIRNDLGWYQQKPGKAPKRLIYGASSLQSGVPSRFSGSGSGTEFTLTISSLQPEDFATYYCLQHNSYPYTFGQGTKLEIK | fold activation, T-cell proliferation, 22 nM, non-anchored, donor 2 [4]: 0.9 fold; fold activation, T-cell proliferation, 22 nM, non-anchored, donor 3 [4]: 1 fold; fold activation, T-cell proliferation, 22 nM, non-anchored, donor 4 [4]: 1.7 fold; fold activation, T-cell proliferation, 22 nM, non-anchored, mean [4]: 1.1 fold; Average Signal (RLU) at 100 nM [5]: 8390 RLU; EC50 [5]: 1.4 nM; Kd (hGITR.mmh): 64.7 nM; koff (hGITR.mmh): 0.0143 s⁻¹; kon (hGITR.mmh): 221000 M⁻¹ s⁻¹; t½ (hGITR.mmh): 0.8 min; Kd (hGITR.mFc): 1.15 nM; koff (hGITR.mFc): 0.00104 s⁻¹; kon (hGITR.mFc): 904000 M⁻¹ s⁻¹; t½ (hGITR.mFc): 11.1 min; binding result (mfGITR.mmh): no binding |
| 0.9 | 1.5 | 1.1 | 1.9 | 1.7 | 1.4 | 2 | 8 | 8 | 4 | 8 | 31 | 5 | 4 | 8 | 30 | 90 | 1.1 | 3.4 | 0.6 | H4H14528P (antibody, human IgG4, V domains shown, human IgG4 (H4H)) VH: QVQLVESGGGVVQPGRSLRISCAASGFTFNNYGFHWVRQAPGRGLEWVAVIWYSGSNKYYGDSVKGRFTISRDNSKNILYLQMNSLRAEDTAIYYCARFPFSSSWLLDYWGQGTLVTVSS VL: DIQLTQSPSFLSASVGDRVTFTCWASQGISDYLAWYQQKPGKAPKLLIYAASALQSGVPSRFSGSGSGTEFTLTVSSLQPEDFATYYCQQLNSYPFTFGPGTKVDIK | fold activation, T-cell proliferation, 22 nM, non-anchored, donor 2 [4]: 0.8 fold; fold activation, T-cell proliferation, 22 nM, non-anchored, donor 3 [4]: 0.9 fold; fold activation, T-cell proliferation, 22 nM, non-anchored, donor 4 [4]: 1 fold; fold activation, T-cell proliferation, 22 nM, non-anchored, mean [4]: 0.8 fold; Average Signal (RLU) at 100 nM [5]: 7310 RLU; EC50 [5]: 0.45 nM; Kd (hGITR.mmh): 51.3 nM; koff (hGITR.mmh): 0.00523 s⁻¹; kon (hGITR.mmh): 102000 M⁻¹ s⁻¹; t½ (hGITR.mmh): 2.2 min; Kd (hGITR.mFc): 1.12 nM; koff (hGITR.mFc): 0.00177 s⁻¹; kon (hGITR.mFc): 1.58e+06 M⁻¹ s⁻¹; t½ (hGITR.mFc): 6.5 min; binding result (mfGITR.mmh): no binding |
| 0.9 | 0.7 | 1.1 | 1.5 | 1.5 | 1.1 | 2 | 12 | 12 | 13 | 12 | 39 | 11 | 6 | 13 | 20 | 30 | 1.3 | 1.2 | 0.5 | H4H14539P2 (antibody, human IgG4, V domains shown, human IgG4 (H4H)) VH: QVQLVESGGGVVQPGRSLRLSCAASGFSFSSYGMHWVRQAPGKGLEWMAVIWYAGSNKFYADSVKGRFTISRDNSKNTLYLQMNSLTAEDTAVYYCARGSSLAAPDLYKYGMDVWGQGTTVTVSS VL: not shown | fold activation, T-cell proliferation, 22 nM, non-anchored, donor 2 [4]: 0.8 fold; fold activation, T-cell proliferation, 22 nM, non-anchored, donor 3 [4]: 1.1 fold; fold activation, T-cell proliferation, 22 nM, non-anchored, donor 4 [4]: 0.8 fold; fold activation, T-cell proliferation, 22 nM, non-anchored, mean [4]: 0.8 fold; Average Signal (RLU) at 100 nM [5]: 4910 RLU; EC50 [5]: 0.3 nM; Kd (hGITR.mmh): 82.5 nM; koff (hGITR.mmh): 0.0177 s⁻¹; kon (hGITR.mmh): 214000 M⁻¹ s⁻¹; t½ (hGITR.mmh): 0.7 min; Kd (hGITR.mFc): 0.554 nM; koff (hGITR.mFc): 0.000472 s⁻¹; kon (hGITR.mFc): 853000 M⁻¹ s⁻¹; t½ (hGITR.mFc): 24.5 min; Kd (mfGITR.mmh): 22.8 nM; koff (mfGITR.mmh): 0.00165 s⁻¹; kon (mfGITR.mmh): 72300 M⁻¹ s⁻¹; t½ (mfGITR.mmh): 7 min |
